Source: the supplement of paper PMC7877785
± gives the uncertainty stated by the source.

Assay: self-splicing fitness, log relative to wild type (ln ratio); higher = more splicing; Tetrahymena group I intron in knt gene, E. coli kanamycin selection, DiMSum; sequences stand for … in CUCUCU…GGAGGGAAAAGUUAUCAGGCAUGCACCUGGUAGCUAGUCUUUAAACCAAUAGAUUGCAUCGGUUUAAAAGGCAAGACCGUCAAAUUGCGGGAAAGGGGUCAACAGCCGUUCAGUACCAAGUCUCAGGGGAAACUUUGAGAUGGCCUUGCAAAGGGUAUGGUAAUAAGCUGACGGACAUGGUCCUAACCACGCAGCCAAGUCCUAAGUCAACAGAUCUUCUGUUGAUAUGGAUGCAGUUCACAGACUAAAUGUCGGUCGGGGAAGAUGUAUUCUUCUCAUAAGAUAUAGUCGGACCUCUCCUUAAUGGGAGCUAGCGGAUGAAGUGAUGCAACACUGGAGCCGCUGGGAACUAAUUUGUAUGCGAAAGUAUAUUGAUUAGUUUUGGAGUACUCGUGGUCG
Procedure, shortened: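 A randomised library covering all eight P1ex-region intron nucleotides was built with the intron in the knt kanamycin-resistance gene on pET-22b(+) and held in E. coli BL21(DE3). Cells were grown overnight at 37°C or 30°C on LB agar, with or without 25 μg/mL kanamycin, plus 100 μg/mL carbenicillin, 50 μM IPTG and 0.2% rhamnose, and pooled colonies were amplicon-sequenced on an Illumina HiSeq 2500. DiMSum fitness is the error-weighted combination of wild-type-normalised replicate fold changes, kanamycin versus none.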

| Sequence | self-splicing fitness (ln) (30 °C) | self-splicing fitness (ln) (37 °C) |
| --- | --- | --- |
| AAAUAGCAAUAUUACGCUCG | -0.663 ± 0.12 | -0.925 ± 0.15 |
| AAAUAGCAAUAUUACGCUUC | -3.19 ± 0.3 | -2.99 ± 0.3 |
| AAAUAGCAAUAUUACGGAAG | -3.63 ± 0.25 | -2.15 ± 0.18 |
| AAAUAGCAAUAUUACGGAGU | -3.7 ± 0.2 | -2.61 ± 0.15 |
| AAAUAGCAAUAUUACGGCCC | -0.752 ± 0.16 | -0.254 ± 0.22 |
| AAAUAGCAAUAUUACGGCCU | -0.218 ± 0.095 | 0.661 ± 0.17 |
| AAAUAGCAAUAUUACGGCGC | -1.11 ± 0.15 | -0.73 ± 0.15 |
| AAAUAGCAAUAUUACGGCUC | -0.691 ± 0.14 | 0.393 ± 0.18 |
| AAAUAGCAAUAUUACGGGCU | -2.04 ± 0.15 | -0.367 ± 0.13 |
| AAAUAGCAAUAUUACGGUUG | -1.88 ± 0.094 | -1.33 ± 0.12 |
| AAAUAGCAAUAUUACGUCCC | -0.4 ± 0.21 | -1.33 ± 0.28 |
| AAAUAGCAAUAUUACGUGCA | -1.23 ± 0.063 | -0.426 ± 0.095 |
| AAAUAGCAAUAUUACGUGCC | -1.46 ± 0.084 | -0.919 ± 0.09 |
| AAAUAGCAAUAUUACGUUCG | -1.17 ± 0.088 | -0.371 ± 0.13 |
| AAAUAGCAAUAUUACGUUUC | -3.46 ± 0.39 |  |
| AACAAGCAAUAUUACGAAAA | -1.7 ± 0.15 | -2.39 ± 0.19 |
| AACAAGCAAUAUUACGACAA | -1.28 ± 0.12 | -1.18 ± 0.098 |
| AACAAGCAAUAUUACGACGA | -1.15 ± 0.07 | -0.468 ± 0.074 |
| AACAAGCAAUAUUACGACGC | -0.761 ± 0.066 | -0.386 ± 0.076 |
| AACAAGCAAUAUUACGACUA | -0.0433 ± 0.095 | 0.555 ± 0.1 |
| AACAAGCAAUAUUACGAUAG | -3.24 ± 0.17 | -2.24 ± 0.18 |
| AACAAGCAAUAUUACGCAUG | -1.7 ± 0.082 | -0.726 ± 0.1 |
| AACAAGCAAUAUUACGCGCU | -0.49 ± 0.07 | -0.454 ± 0.078 |
| AACAAGCAAUAUUACGCUAG | -3.74 ± 0.19 | -1.98 ± 0.15 |

| Sequence | self-splicing fitness (ln) (30 °C) | self-splicing fitness (ln) (37 °C) |
| --- | --- | --- |
| AACAAGCAAUAUUACGCUGG | -2.25 ± 0.081 | -1.04 ± 0.1 |
| AACAAGCAAUAUUACGCUUU | -3.18 ± 0.15 | -2.77 ± 0.18 |
| AACAAGCAAUAUUACGGAAA | -3.08 ± 0.15 | -1.34 ± 0.11 |
| AACAAGCAAUAUUACGGCUC | -0.27 ± 0.071 | 0.236 ± 0.1 |
| AACAAGCAAUAUUACGGGGG | -2.94 ± 0.17 | -1.86 ± 0.17 |
| AACAAGCAAUAUUACGGUAC | -3.04 ± 0.16 | -1.99 ± 0.18 |
| AACAAGCAAUAUUACGGUUA | -0.694 ± 0.058 | -0.134 ± 0.064 |
| AACAAGCAAUAUUACGUAGA | -2.88 ± 0.089 | -0.993 ± 0.077 |
| AACAAGCAAUAUUACGUAGU | -2.37 ± 0.11 | -1.47 ± 0.12 |
| AACAAGCAAUAUUACGUCCU | 0.214 ± 0.064 | 0.0455 ± 0.074 |
| AACAAGCAAUAUUACGUGAA | -2.08 ± 0.082 | -0.353 ± 0.081 |
| AACAAGCAAUAUUACGUGGG | -2.93 ± 0.12 | -2.95 ± 0.13 |
| AACAAGCAAUAUUACGUGUU | -4.01 ± 0.19 | -2.05 ± 0.12 |
| AACAAGCAAUAUUACGUUAU | -3.49 ± 0.16 | -2.13 ± 0.12 |
| AACAAGCAAUAUUACGUUCU | -2.01 ± 0.064 | -1.16 ± 0.094 |
| AACCAGCAAUAUUACGAAAA | -1.54 ± 0.099 | -1.3 ± 0.1 |
| AACCAGCAAUAUUACGAAAC | -2.26 ± 0.14 | -0.477 ± 0.16 |
| AACCAGCAAUAUUACGAAGU | -2.26 ± 0.066 | -0.559 ± 0.069 |
| AACCAGCAAUAUUACGAGCU | -2.52 ± 0.087 | -1.82 ± 0.1 |
| AACCAGCAAUAUUACGAUUA | -0.368 ± 0.056 | -0.164 ± 0.067 |
| AACCAGCAAUAUUACGAUUC | -1.63 ± 0.071 | -0.153 ± 0.084 |
| AACCAGCAAUAUUACGCAUA | -0.88 ± 0.078 | 0.309 ± 0.089 |
| AACCAGCAAUAUUACGCAUG | -1.7 ± 0.082 | -0.971 ± 0.083 |
| AACCAGCAAUAUUACGCCCA | -0.618 ± 0.22 | -0.865 ± 0.18 |

| Sequence | self-splicing fitness (ln) (30 °C) | self-splicing fitness (ln) (37 °C) |
| --- | --- | --- |
| AACCAGCAAUAUUACGCCGA | -0.252 ± 0.11 | -0.169 ± 0.11 |
| AACCAGCAAUAUUACGCCUU | -0.506 ± 0.053 | 0.096 ± 0.07 |
| AACCAGCAAUAUUACGCGAG | -1.21 ± 0.063 | -0.492 ± 0.072 |
| AACCAGCAAUAUUACGCGUG | -1.09 ± 0.057 | -0.149 ± 0.063 |
| AACCAGCAAUAUUACGCUUU | -1.42 ± 0.084 | -1.05 ± 0.09 |
| AACCAGCAAUAUUACGGCAG | -1.02 ± 0.058 | -0.17 ± 0.08 |
| AACCAGCAAUAUUACGGCUC | -1.34 ± 0.1 | -0.82 ± 0.11 |
| AACCAGCAAUAUUACGGUAA | -0.741 ± 0.051 | -0.682 ± 0.058 |
| AACCAGCAAUAUUACGGUGA | -1.19 ± 0.065 | -0.538 ± 0.078 |
| AACCAGCAAUAUUACGUAAC | -2.5 ± 0.094 | -1.15 ± 0.11 |
| AACCAGCAAUAUUACGUAGC | -2.7 ± 0.089 | -2.17 ± 0.11 |
| AACCAGCAAUAUUACGUCGU | -1.26 ± 0.046 | -0.25 ± 0.058 |
| AACCAGCAAUAUUACGUCUC | -1.23 ± 0.056 | -0.774 ± 0.076 |
| AACCAGCAAUAUUACGUGAG | -0.744 ± 0.04 | -0.39 ± 0.067 |
| AACCAGCAAUAUUACGUGUU | -3.59 ± 0.11 | -2.47 ± 0.12 |
| AACGAGCAAUAUUACGAACU | -1.11 ± 0.13 | -1.42 ± 0.16 |
| AACGAGCAAUAUUACGAGUU | -3.48 ± 0.32 | -2.1 ± 0.22 |
| AACGAGCAAUAUUACGAUGG | -3.27 ± 0.16 | -3 ± 0.26 |
| AACGAGCAAUAUUACGCAGA | -4.04 ± 0.3 | -2.18 ± 0.23 |
| AACGAGCAAUAUUACGCCAA | -2.5 ± 0.19 | -3.1 ± 0.22 |
| AACGAGCAAUAUUACGCCCG | -1.98 ± 0.32 | -0.148 ± 0.33 |
| AACGAGCAAUAUUACGCCCU | -1.66 ± 0.12 | -0.745 ± 0.17 |
| AACGAGCAAUAUUACGCCGG | -2.42 ± 0.4 | -0.855 ± 0.34 |
| AACGAGCAAUAUUACGCCUA | -3.36 ± 0.41 | -1.08 ± 0.3 |

| Sequence | self-splicing fitness (ln) (30 °C) | self-splicing fitness (ln) (37 °C) |
| --- | --- | --- |
| AACGAGCAAUAUUACGGAUU | -2.3 ± 0.14 | -1.4 ± 0.19 |
| AACGAGCAAUAUUACGGCAG |  | -3.6 ± 0.36 |
| AACGAGCAAUAUUACGGUGC | -3.15 ± 0.3 | -2.69 ± 0.33 |
| AACGAGCAAUAUUACGUCAC | -4.01 ± 0.23 | -1.83 ± 0.22 |
| AACGAGCAAUAUUACGUCGG | -3.25 ± 0.26 | -0.594 ± 0.15 |
| AACGAGCAAUAUUACGUCUA | -2.06 ± 0.17 | -0.756 ± 0.12 |
| AACGAGCAAUAUUACGUGUG | -3.18 ± 0.13 | -2.57 ± 0.14 |
| AACGAGCAAUAUUACGUGUU |  | -3.62 ± 0.34 |
| AACGAGCAAUAUUACGUUCC | -3.09 ± 0.36 | -2.41 ± 0.3 |
| AACGAGCAAUAUUACGUUGG | -3.75 ± 0.24 | -2.86 ± 0.25 |
| AACUAGCAAUAUUACGACUC | -0.19 ± 0.057 | 0.0401 ± 0.079 |
| AACUAGCAAUAUUACGAUCG | -0.822 ± 0.074 | 0.0491 ± 0.1 |
| AACUAGCAAUAUUACGAUGU | -0.797 ± 0.082 | -0.157 ± 0.12 |
| AACUAGCAAUAUUACGCUCA | -0.21 ± 0.1 | 0.239 ± 0.14 |
| AACUAGCAAUAUUACGGAAG | -2.57 ± 0.13 | -1.49 ± 0.12 |
| AACUAGCAAUAUUACGGGGU | -3.93 ± 0.3 | -2.34 ± 0.18 |
| AACUAGCAAUAUUACGUCCU | -0.111 ± 0.092 | 1.04 ± 0.12 |
| AACUAGCAAUAUUACGUCGG | -3.57 ± 0.14 | -2.26 ± 0.16 |
| AACUAGCAAUAUUACGUGCG | -0.832 ± 0.067 | -0.0538 ± 0.078 |
| AACUAGCAAUAUUACGUUCG | -3.36 ± 0.26 | -1.79 ± 0.16 |
| AAGAAGCAAUAUUACGAAUA | -1.86 ± 0.17 | -0.73 ± 0.12 |
| AAGAAGCAAUAUUACGACCU | 0.116 ± 0.099 | -0.338 ± 0.11 |
| AAGAAGCAAUAUUACGACGA | -0.362 ± 0.093 | -0.274 ± 0.099 |
| AAGAAGCAAUAUUACGACGC | -0.655 ± 0.12 | -0.0572 ± 0.17 |
